Test results: US20100260765A1 (AstraZeneca / MedImmune, published 2010)

How the values were obtained:
[1] = target: T1, human KDR (VEGFR2) on cells (human, UniProt P35968 20-1356); experiment: cell-based or functional assay
[2] = target: T2, mouse KDR (Flk-1)/Fc (Cat. #443-KD/CF, R&D Systems) (mouse, UniProt P35918 20-762); experiment: ELISA, plate-coated Flk-1/Fc 500 ng/mL, hybridoma supernatant 1:5
T2 construct: Bought reagent; also called mouse VEGFR2; KDR mouse ortholog; Fc part of the bought chimera not given
T2 sequence (P35918 20-762): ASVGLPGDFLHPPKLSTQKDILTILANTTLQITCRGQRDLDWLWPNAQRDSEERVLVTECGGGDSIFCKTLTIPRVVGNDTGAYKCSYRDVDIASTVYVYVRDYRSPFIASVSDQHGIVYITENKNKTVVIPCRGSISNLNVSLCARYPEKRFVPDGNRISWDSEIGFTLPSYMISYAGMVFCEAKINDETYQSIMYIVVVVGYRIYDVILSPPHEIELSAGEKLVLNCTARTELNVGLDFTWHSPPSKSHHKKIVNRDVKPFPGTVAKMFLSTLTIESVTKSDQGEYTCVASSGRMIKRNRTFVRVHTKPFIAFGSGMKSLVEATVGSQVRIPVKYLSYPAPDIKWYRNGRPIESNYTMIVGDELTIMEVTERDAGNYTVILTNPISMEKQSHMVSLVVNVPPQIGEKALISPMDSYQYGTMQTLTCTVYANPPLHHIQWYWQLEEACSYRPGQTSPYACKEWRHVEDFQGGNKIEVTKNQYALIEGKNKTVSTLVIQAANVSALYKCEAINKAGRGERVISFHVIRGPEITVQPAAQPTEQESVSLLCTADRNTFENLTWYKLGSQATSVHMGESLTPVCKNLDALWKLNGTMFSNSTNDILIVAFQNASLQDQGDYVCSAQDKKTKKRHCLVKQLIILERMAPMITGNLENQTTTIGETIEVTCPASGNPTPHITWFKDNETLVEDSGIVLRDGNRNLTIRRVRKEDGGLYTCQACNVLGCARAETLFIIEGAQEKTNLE
Method: The cross-reactivity of antibodies in the hybridoma supernatant was tested against KDR mouse ortholog (mouse VEGFR2, or Flk-1) and human VEGFR1 (Flt-1). Cross-reactivity was measured using an ELISA based assay.
After washing and blocking the plates, the antibody-containing supernatants were added (at 1:5 dilution) into the coated wells and incubated for one hour at room temperature. The plates were then incubated with mouse anti-human IgG 2, 3 and 4 and subsequently with goat anti-mouse IgG Fc POD, to detect and measure bound antibodies.

[3] = target: T1, human KDR (VEGFR2) on cells; experiment: FACS on HUVEC, hybridoma supernatant 1:50
Method: HUVECs were seeded at 15,000 cells/well and incubated with 100 μL of sample supernatant (at 1:50 dilution) for one hour at 4° C. The positive control was goat anti-KDR antibody (R&D Systems, Inc.), and negative controls included irrelevant hybridoma supernatants at the same dilution. The cells were then washed and incubated with Cy5-conjugated goat anti-human antibody at 5 μg/mL and 7-Amino-Actinomycin D (7AAD) at 5 μg/mL for 15 minutes at 4° C. Bound KDR was detected using FACS analysis.

[4] = target: T1, human KDR (VEGFR2) on cells; experiment: cell-based or functional assay; remark: listed apart in the source
[5] = target: T3, soluble KDR (VEGF Receptor 2 D1-7, Cat. #676490, Calbiochem) (human, UniProt P35968 20-764); experiment: ELISA, plate-coated soluble KDR 250 ng/mL, hybridoma supernatant 1:5
T3 construct: extracellular domain; Bought reagent; also called soluble human KDR; immobilized soluble KDR
T3 sequence (P35968 20-764): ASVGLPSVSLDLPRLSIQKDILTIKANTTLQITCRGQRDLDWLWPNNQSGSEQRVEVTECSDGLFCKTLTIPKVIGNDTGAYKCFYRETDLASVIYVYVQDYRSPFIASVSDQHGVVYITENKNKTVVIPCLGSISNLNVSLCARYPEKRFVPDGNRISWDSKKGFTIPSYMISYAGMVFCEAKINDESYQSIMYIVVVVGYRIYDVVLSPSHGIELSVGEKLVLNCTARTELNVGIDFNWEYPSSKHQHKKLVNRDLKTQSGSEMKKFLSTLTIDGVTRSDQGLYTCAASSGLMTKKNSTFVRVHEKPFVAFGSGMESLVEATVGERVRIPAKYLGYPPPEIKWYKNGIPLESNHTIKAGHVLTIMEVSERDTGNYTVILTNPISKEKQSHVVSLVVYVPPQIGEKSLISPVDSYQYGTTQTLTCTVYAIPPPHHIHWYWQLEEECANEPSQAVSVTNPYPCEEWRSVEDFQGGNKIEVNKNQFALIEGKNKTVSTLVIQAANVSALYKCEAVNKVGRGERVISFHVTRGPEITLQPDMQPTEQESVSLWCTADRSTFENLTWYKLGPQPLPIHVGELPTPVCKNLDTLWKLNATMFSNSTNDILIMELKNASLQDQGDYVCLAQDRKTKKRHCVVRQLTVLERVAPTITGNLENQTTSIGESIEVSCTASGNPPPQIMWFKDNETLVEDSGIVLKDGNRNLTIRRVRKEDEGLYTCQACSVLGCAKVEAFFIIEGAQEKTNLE
Method: To screen by binding to immobilized soluble KDR, plates were coated with KDR (Calbiochem) at 250 ng/mL overnight at 4° C. After blocking and washing the coated plates, the candidate hybridoma supernatants (at 1:5 dilution) were transferred to the plates and incubated for one hour at room temperature. The plates were then washed and incubated with secondary antibody (at 1:4000 dilution) for one hour at room temperature.

[6] = target: T1, human KDR (VEGFR2) on cells; experiment: cell-based or functional assay; remark: listed apart in the source
b-KDRIg4-7-myc-his = target: T4, b-KDRIg4-7-myc-his (UniProt P35968 328-764, prefix 'b-' not explained; captured on neutravidin-coated plates (presumably biotinylated, site not stated)); experiment: ELISA, b-KDRIg4-7-myc-his 1 ug/mL on neutravidin, hybridoma supernatant 1:5
T4 construct: domain: Ig4-7; The text calls it 'a KDR antibody containing the Ig4-7 domain'; it is read as the KDR fragment; Purified on a nickel column; also called Ig4-7 domain of KDR; soluble KDR Ig4-7; not shown: myc-his tag of the pSecTag vector
T4 sequence (P35968 328-764): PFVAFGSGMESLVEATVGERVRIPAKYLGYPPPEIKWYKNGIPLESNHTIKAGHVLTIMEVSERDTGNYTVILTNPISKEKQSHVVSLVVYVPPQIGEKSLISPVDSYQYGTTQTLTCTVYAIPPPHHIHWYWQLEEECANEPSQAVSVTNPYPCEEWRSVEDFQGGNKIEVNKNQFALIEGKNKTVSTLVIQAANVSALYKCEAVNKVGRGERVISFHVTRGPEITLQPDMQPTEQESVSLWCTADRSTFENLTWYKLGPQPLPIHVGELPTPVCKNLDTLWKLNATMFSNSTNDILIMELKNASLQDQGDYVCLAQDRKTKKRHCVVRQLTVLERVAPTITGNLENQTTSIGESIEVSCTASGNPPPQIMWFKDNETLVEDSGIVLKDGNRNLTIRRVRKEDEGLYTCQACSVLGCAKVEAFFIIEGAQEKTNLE
Method: To screen by binding to the Ig4-7 domain of KDR, plates were first coated with neutravadin (Pierce) at 4 μg/mL and incubated overnight at 4° C. The plates were then blocked and subsequently incubated with b-KDRIg4-7-myc-his at 1 μg/mL for one hour at room temperature. Candidate hybridoma supernatants (at 1:5 dilution) were transferred to the plates and incubated for one hour at room temperature. The plates were then washed and incubated with goat anti-human IgG Fc POD (at 1:4000 dilution) for one hour at room temperature.

T1 sequence (P35968 20-1356): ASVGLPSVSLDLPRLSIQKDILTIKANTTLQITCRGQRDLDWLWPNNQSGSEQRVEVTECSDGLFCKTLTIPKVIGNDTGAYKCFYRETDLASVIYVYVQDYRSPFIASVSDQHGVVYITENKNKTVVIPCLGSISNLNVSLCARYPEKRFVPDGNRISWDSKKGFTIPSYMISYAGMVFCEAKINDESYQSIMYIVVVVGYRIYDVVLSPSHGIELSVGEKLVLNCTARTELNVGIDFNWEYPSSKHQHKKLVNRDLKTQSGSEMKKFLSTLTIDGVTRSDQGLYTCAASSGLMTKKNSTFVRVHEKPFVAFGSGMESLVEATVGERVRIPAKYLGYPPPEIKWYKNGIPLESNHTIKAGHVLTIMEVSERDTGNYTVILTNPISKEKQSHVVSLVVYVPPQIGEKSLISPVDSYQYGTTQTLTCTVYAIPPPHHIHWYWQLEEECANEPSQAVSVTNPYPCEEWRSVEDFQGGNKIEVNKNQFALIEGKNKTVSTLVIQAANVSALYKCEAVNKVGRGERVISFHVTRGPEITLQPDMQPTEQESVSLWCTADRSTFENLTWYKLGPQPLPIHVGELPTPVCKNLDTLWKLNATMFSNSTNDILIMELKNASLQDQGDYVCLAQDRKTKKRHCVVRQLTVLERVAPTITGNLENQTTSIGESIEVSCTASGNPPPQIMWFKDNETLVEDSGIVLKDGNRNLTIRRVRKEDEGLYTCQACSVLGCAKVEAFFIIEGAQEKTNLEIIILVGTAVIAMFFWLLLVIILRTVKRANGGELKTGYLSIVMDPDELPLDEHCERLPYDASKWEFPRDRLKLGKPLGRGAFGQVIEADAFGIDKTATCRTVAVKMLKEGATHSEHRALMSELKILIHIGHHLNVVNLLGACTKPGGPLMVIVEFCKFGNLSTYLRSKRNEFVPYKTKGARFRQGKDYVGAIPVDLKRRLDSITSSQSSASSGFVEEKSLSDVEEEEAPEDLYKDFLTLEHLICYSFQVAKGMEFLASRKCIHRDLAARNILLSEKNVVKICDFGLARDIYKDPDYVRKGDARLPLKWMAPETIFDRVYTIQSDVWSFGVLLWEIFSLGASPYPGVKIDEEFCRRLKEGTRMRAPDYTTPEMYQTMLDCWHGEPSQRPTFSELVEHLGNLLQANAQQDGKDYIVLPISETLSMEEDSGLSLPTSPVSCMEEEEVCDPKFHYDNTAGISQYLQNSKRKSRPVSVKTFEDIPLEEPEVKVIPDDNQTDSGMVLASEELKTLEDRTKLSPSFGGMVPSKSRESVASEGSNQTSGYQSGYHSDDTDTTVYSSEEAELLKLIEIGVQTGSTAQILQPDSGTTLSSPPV

Binder | % Inhibition of VEGF165-mediated pTyr Activity, Average [1] [%] | % Inhibition of VEGF165-mediated pTyr Activity, n = 1 [1] [%] | % Inhibition of VEGF165-mediated pTyr Activity, n = 2 [1] [%] | % Inhibition of VEGF165-mediated pTyr Activity, n = 3 [1] [%] | OD (450 nm) [2] [OD450] | FACS Geometric Mean [3] | HUVEC survival (n = 1) 1:10 dilution of supernatant (RLU) [4] [RLU] | HUVEC survival (n = 2) 1:20 dilution of supernatant (RLU) [4] [RLU] | KDR OD(450 nm) [5] [OD450] | % Inhibition of VEGF-E-mediated pTyr Activity [6] [%] | b-KDRIg4-7 OD(450 nm) (b-KDRIg4-7-myc-his) [OD450]
anti-KDR monoclonal antibody 30F6 (antibody, V domains shown, Fully human mAb from XenoMouse (IgG2 or IgG4 strain); hybridoma supernatant) VH: QVQLVESGGGVVQPGRSLRLSCAASGFTFSTYGMHWVRQAPGKGLEWVAVIWYDGSNKYYADSVKGRFTISRDNSKNTLYLQMNSLRAEDTAVYYCACSYWNDDYYYGMDVWGQGTTVTVSS VL: DIQMTQSPSSLSASVGDRVIITCRASQNISSYLIWYQQKPGKAPNLLIHTTSSLQRGVPSRFSGSGSGTDFTLTISSLQPEDFATYYCQQSYSAPLTFGGGTKVEIK | 70 | 98 | 60 | 52 | 0.067 | 21 | 14800 | 1350 | 0.454 | 56 | –
anti-KDR monoclonal antibody 21H6 (antibody, V domains shown, Fully human mAb from XenoMouse; hybridoma supernatant) VH: QVQLVESGGGLVKPGGSLRLSCAASGFTFSDYYMSWIRQAPGKGLEWVSYISNSGITIYYADSVKGRFTISRDNAKNSLYLQMNSLRAGDTAVYYCAREEWYSSRWYRNFDYWGQGTLVTVSS VL: DIQMTQFSSSLSASVGDRVTITCRASQSISRYLNWYQQKPGKAPKLLIYAASSLQSGVPSRFNGSGSGTDFTLTISSLQPEDFATYYCQQSYSAPLTFGGGTKVEIK | 72 | 85 | 65 | 68 | – | 18 | 10200 | 247 | 0.62 | 70 | 0.935
anti-KDR monoclonal antibody 21A1 (antibody, V domains shown, Fully human mAb from XenoMouse (IgG2 or IgG4 strain); hybridoma supernatant) VH: QVQLVESGGGLVKPGGSLRLSCAASGFTFSDYYMSWIRQAPGKGLEWVSYISNSGITIYYADSVKGRFTISRDNAKNSLYLQMNSLRAGDTAVYYCAREEWYSSRWYRNFDYWGQGTLVTVSS VL: DIQMTQFSSSLSASVGDRVTITCRASQSISRYLNWYQQKPGKAPKLLIYAASSLQSGVPSRFNGSGSGTDFTLTISSLQPEDFATYYCQQSYSAPLTFGGGTKVEIK | 72 | 71 | 77 | 68 | – | 14 | 8870 | 2670 | 0.967 | 67 | 1.27
anti-KDR monoclonal antibody 30H10 (antibody, V domains shown, Fully human mAb from XenoMouse (IgG2 or IgG4 strain); hybridoma supernatant) VH: EVQLLESGGGLVQPGGSLRLSCAASGFTFSNYAMSWVRQAPGKGLEWVSAISGSGGITYYADSVKGRFTISRDNSKNTLFLQMNSLRAEDTAVYYCAKASGDNWGQGTLVSVSS VL: not shown | 76 | 92 | 77 | 59 | – | 31 | 39500 | 21100 | 0.943 | 20 | 0.047
anti-KDR monoclonal antibody 32C11 (antibody, V domains shown, Fully human mAb from XenoMouse (IgG2 or IgG4 strain); hybridoma supernatant) VH: EVQLLESGGTLVQPGGSLRLSCAASGFTFSNYAMSWVRQAPGKGLEWVSAISGRAGSTYYADSVKGRFTISRDNSKNTLFLQMNSLRAEDTAVYYCAKASGDDWGQGTLVTVSS VL: not shown | 72 | 84 | 75 | 57 | 0.083 | 26 | 44800 | 8570 | 0.924 | 17 | –
anti-KDR monoclonal antibody 27A3 (antibody, V domains shown, Fully human mAb from XenoMouse (IgG2 or IgG4 strain); hybridoma supernatant) VH: QLQLQESGPGLVKPSETLSLTCTVSGGSISSRSDYWGWIRQPPGKGLEWIGTIYYSGDTYYNPSLKSRVTISVDTSKNQFSLKLSSVTAADTAVYYCARQQLVLYYFDYWGQGTLVTVSS VL: EIVLTQSPGTLSLSPGERATLSCRASQSVSSSYLAWYQQKPGQAPRLLIYATSNRATGIPDRFSGSGSGTDFTLTISRLEPEDFAVYYCQQHGSSPPLTFGGGTKVEIK | 62 | 60 | 68 | 59 | – | 25 | 17300 | 4560 | 3.75 | 60 | 1.82
anti-KDR monoclonal antibody 21H9 (antibody, V domains shown, Fully human mAb from XenoMouse (IgG2 or IgG4 strain); hybridoma supernatant) VH: QVPLVESGGGVVQPGRSLRLSCAASGFTFSSYGMHWVRQAPGKGLEWVAVIWYDGSNKYYADSVQGRFTISRDNSKNTLYLQMNSLRAEDTAVYYCARGVTMVRGLIIARYYYGLDVWGQGTTVTVSS VL: DIVMTQTPLSSPVTFGQPASISCRSSQSLVHSDGNTYLSWLQQRPGQPPRLLIYKISNRFFGVPDRFSGSGAGTDFTLKISRVEAEDVGLYYCMQSTQFPLTFGGGTKVEIK | 70 | 80 | 70 | 61 | 0.139 | 29 | 43800 | 10300 | 1.65 | 6 | –
